One series deals with B. subtilis. Briefly: Growth inhibition assay of the synthetic partial peptide. In kind it is cell-based. The note with it: custom synthesized 19-mer, indicator strain B. subtilis. The text has this:
(§1) The molecular mass observed for laterosporulin by MALDI-TOF was 5605.8 Da ( Fig. 3 ), which is in good agreement with mass obtained by gel filtration chromatography ( Fig. 2A ). The N-terminal sequence of laterosporulin yielded partial sequence of ^1A(M)Q(C)QG(C/Q)PDAISGWTHTDYQCH^19 for two independently processed samples. The uncertainties at the 1st, 2nd and 4th positions obtained in N-terminal sequences were considered to predict the antibacterial activity of each possible peptide sequence using a database of peptides with known antimicrobial potency. […] To confirm the antimicrobial activity of this partial peptide, it was custom synthesized, mass was confirmed by MALDI-TOF and the synthetic peptide was examined in growth inhibition assays using indicator strains B. subtilis and E. coli.
(§2) To evaluate antibacterial function of the N-terminal peptide, a 19-mer peptide representing the N-terminal sequence of the bioactive protein was synthesized using standard Fmoc-chemistry on 2-chlorotrityl resin (0.2 mmol/g). Synthesis was carried out on a semi-automated synthesizer (PS-II) (Protein Technologies Inc., AZ USA). It was cleaved with TFA and purified by RP-HPLC system (Dionex, Ultimate-3000) using C-18 analytical column. The purified peptide was subjected to MALDI-TOF analysis for confirmation of molecular mass.

Series [1] has as its system E. coli. The series is described as above. In kind it is cell-based. The note with it: custom synthesized 19-mer, indicator strain E. coli.
Text: as §1, §2

The subject of the next series is B.subtilis. Briefly: MIC, microtiter plate dilution assay. It is filed as cell-based. The conditions noted are these: purified laterosporulin, micro-titer plates, triplicates, 30°C, OD 600 nm, 48 h. The protocol: (§3) The MIC of bacteriocin for different strains was evaluated by using a microtiter plate dilution assay. Test strains were grown to logarithmic phase under optimal conditions (up to 0.3 OD) and the test was performed in triplicates. Each well of the microtiter plate was added with 200 µl of fresh nutrient medium and 50 µl of test strains in different rows. Subsequently, different dilutions (50 µl) of freshly prepared bacteriocin were added to each well. The first column of the microtiter plate was left as a blank while reading through an ELISA plate reader (Thermo Scientific). The microtiter plates were incubated at 30°C incubator and OD was measured at 600 nm at different time intervals.

The subject of another series is S. aureus. Briefly: MIC, microtiter plate dilution assay. It is filed as cell-based. The conditions noted are these: purified laterosporulin, micro-titer plates, triplicates, 30°C, OD 600 nm, 48 h. The protocol:
as §3

Series [2] deals with E. coli. Briefly: Bactericidal effect by scanning electron microscopy. In kind it is cell-based. The note with it: 500 µg/ml purified peptide, 4 hours, 37°C, about 2×10^7 cells/ml; compared to untreated bacteria. On the procedure: To examine the bactericidal activity, E.coli cells were grown in NB to an exponential phase, harvested by centrifugation. The pellet obtained was resuspended in fresh NB and aliquots of 5 ml containing about 2×10^7 cells/ml were incubated at 37°C for 4 hours with 500 µg/ml laterosporulin. Samples at 0, 2 and 4 hours interval were centrifuged and pellets were resuspended in 500 µl of phosphate buffer. Each sample was spread on a poly (L-lysine)-coated glass slides (18×18 mm) to immobilize bacterial cells and incubated at 30°C for 90 min. They were fixed with modified Karnovsky's fixative and dehydrated with a graded ethanol series.

The nature of series [3]: Heat stability, residual antimicrobial activity. In kind it is physicochemical. The note with it: 120°C for 15 min. On the procedure: (§4) The sensitivity of the purified bacteriocin towards different pH, temperature and proteases was evaluated. To determine pH and temperature resistance, the purified peptide was incubated at different pH values between 2.0–12.0 and temperatures 80, 100°C for 30 min and 120°C for 15 min. Different hydrolytic enzymes including pepsin, trypsin, chymotrypsin, proteinase K, pronase E and amylase were incubated with bacteriocin for 6 hours at 37°C to ensure their effect. The enzyme activity was terminated by heating at 80°C before the bacteriocin activity was confirmed.

Series [4] in a line: pH stability, residual antimicrobial activity. It is filed as physicochemical. On the procedure: as §4
The test system of another series is chymotrypsin. The series can be described thus: Resistance to proteolytic enzyme, residual antimicrobial activity. In kind it is in vitro ADME. The conditions noted are these: 6 hours at 37°C, enzyme terminated by heating at 80°C. The protocol:
as §4

The subject of another series is pepsin. The series is described as above. In kind it is in vitro ADME. The conditions noted are these: 6 hours at 37°C, enzyme terminated by heating at 80°C. On the procedure: as §4
For a further series, the system named is pronase E. Described as above. In kind it is in vitro ADME. The conditions noted are these: 6 hours at 37°C, enzyme terminated by heating at 80°C. The protocol:
as §4

For another series, the target named is proteinase K (Parengyodontium album, UniProt P06873). The series is described as above. The note with it: 6 hours at 37°C, enzyme terminated by heating at 80°C. In kind it is in vitro ADME. On the procedure:
as §4

In another series the test system is trypsin. The description is as above. In kind it is in vitro ADME. The note with it: 6 hours at 37°C, enzyme terminated by heating at 80°C. On the procedure: as §4
Series [5] in a line: Treatment with dithiothreitol, residual antimicrobial activity. In kind it is physicochemical. The conditions noted are these: DTT used to disrupt disulfide bonds; data not shown.
The subject of a further series is L. monocytogenes. The series can be described thus: Growth inhibition of test strain. It is filed as cell-based. The note with it: test strain L. monocytogenes (MTCC 839). The protocol: (§5) The CFB of strain GI-9 was used to determine the antimicrobial activity. Culture was grown for 48 hours in nutrient broth (NB, Himedia) and subsequently cells were removed by centrifugation (10,000 rpm for 10 min, 4°C). The supernatant obtained was filtered by using 0.22 µm filter (Millipore). The filtrate was diluted by two fold dilution and amounts of 100 µl of different dilutions were used to test the activity. These dilutions were added to the wells that are prepared in plates containing nutrient agar medium seeded with test organism. Above test was also performed using minimal medium to check influence of the medium components on antimicrobial activity. A growth curve up to 24 hours was prepared for strain GI-9 to examine the bacteriocin production at different stages. One unit of bacteriocin was defined as the […] dilution that was given an inhibition zone around the well and reciprocal of this dilution is defined as the unit of antimicrobial activity per ml.

The test system of series [6] is Gram-positive and Gram-negative bacteria. Briefly: Antibacterial spectrum. It is filed as cell-based. The conditions noted are these: wide range of Gram-positive and Gram-negative bacteria. On the procedure: as §5
The MIC of bacteriocin for different strains was evaluated by using a microtiter plate dilution assay. […] The first column of the microtiter plate was left as a blank while reading through an ELISA plate reader (Thermo Scientific). The microtiter plates were incubated at 30°C incubator and OD was measured at 600 nm at different time intervals.

This note sets out measurements from publication PMC3293901, “Identification, Purification and Characterization of Laterosporulin, a Novel Bacteriocin Produced by Brevibacillus sp. Strain GI-9” (PLoS ONE, 2012).

Chain of proteinase K (P06873 106-384): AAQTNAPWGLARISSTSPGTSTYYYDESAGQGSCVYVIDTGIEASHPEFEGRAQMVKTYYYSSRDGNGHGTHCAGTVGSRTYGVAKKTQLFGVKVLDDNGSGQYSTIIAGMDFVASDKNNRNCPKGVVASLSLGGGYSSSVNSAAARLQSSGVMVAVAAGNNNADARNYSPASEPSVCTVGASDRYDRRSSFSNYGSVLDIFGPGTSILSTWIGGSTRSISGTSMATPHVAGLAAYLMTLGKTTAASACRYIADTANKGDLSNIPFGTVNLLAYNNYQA

Consider ACQCPDAISGWTHTDYQCH, for which the antimicrobial activity result in the series on B. subtilis and in the series with E. coli [1] was “weak antimicrobial activity at significantly higher concentration” throughout.
Take “^1A(M)Q(C)QG(C/Q)PDAISGWTHTDYQCH^19 [laterosporulin, 5.6 kDa bacteriocin purified from culture supernatant of Brevibacillus sp. strain GI-9]”: the “MIC (sensitivity in words, values only in Fig. 4)” value against B.subtilis and in the series on S. aureus was “highly sensitive” each time. Besides, the “bactericidal effect, cell morphology by SEM” value in the series on E. coli [2] was “significant modifications in cell shape and morphology”. Further, in series [3], the “heat stability (antimicrobial activity after exposure)” value was “no reduction in antimicrobial activity”. Besides, the “pH stability (antimicrobial activity after incubation)” value was “reduced significantly” in series [4] (above pH 10 (tested up to 12.0)) and “no reduction in antimicrobial activity” in [4] (pH between 2.0 to 10.0). Further, the “antimicrobial activity after incubation with chymotrypsin” value with chymotrypsin was “did not show any reduction”. Besides, the “antimicrobial activity after incubation with pepsin” value in the series on pepsin is recorded as “did not show any reduction”. Further, in the series with pronase E, the “antimicrobial activity after incubation with pronase E” value is on record as “did not show any reduction”. The “antimicrobial activity after incubation with proteinase K” value with proteinase K was “did not show any reduction”. The “antimicrobial activity after incubation with trypsin” value with trypsin is recorded as “did not show any reduction”. Besides, in series [5], the “antimicrobial activity after treatment with dithiothreitol (DTT)” value is reported as “did not affect”. For the same substance, the growth inhibition result in the series on L. monocytogenes is given as “could inhibit the growth”. Further, in series [6], the antibacterial activity result was “active”.
